In general, Kd refers to a measure of binding affinity in units of concentration. Read a high Kd as weaker binding.

The values below come from patent US20230025129A1 (KYMAB, published 2023).

B1: NORI-006 (antibody, human IgG4 S228P, kappa, V domains shown)
VH: EVQLVESGGGLIKPGRSLRLSCTGSGFTFGDFGLSWFRQAPGKGLEWISFIRSKPYGGTTDYAASVKGRFTISRDDSKNVAYLQMNSLKTEDTAVYYCARNEILTGYYIFDYWGQGTLVTVSS
VL: DIQMTQSPSSLSASLGDRVTITCQASQDINNYLNWYQVQPGKAPKLLIFDASILETGVPSRFSGSGSGTDFSFTISSLQPEDIATYYCQQYDNLPLTFGGGTKVDFKR
notes: human IgG4PE, kappa
B2: NORI-003 (antibody, human IgG4 S228P, kappa, V domains shown)
VH: EVQLVESGGGLVKPGRSLRLSCTGSGFTFGDFGMSWFRQAPGKGLEWVGFIRSKPYGGTTDYAPSVRGRFSISRDDSKGIVYLQMNSLRTEDTAVYYCSRNEILTGYYIFDYWGQGTLVTVSS
VL: B1 VL with Q27H, N30T, N34I, V38Q, Q39K, K45R, S72T, I83F, D92Y, F106I
notes: human IgG4PE, kappa; NORI-002 with the free cysteine of the VH domain mutated (printed as 'C49C')
B3: NORI-011 (antibody, human IgG4 S228P, lambda)
heavy: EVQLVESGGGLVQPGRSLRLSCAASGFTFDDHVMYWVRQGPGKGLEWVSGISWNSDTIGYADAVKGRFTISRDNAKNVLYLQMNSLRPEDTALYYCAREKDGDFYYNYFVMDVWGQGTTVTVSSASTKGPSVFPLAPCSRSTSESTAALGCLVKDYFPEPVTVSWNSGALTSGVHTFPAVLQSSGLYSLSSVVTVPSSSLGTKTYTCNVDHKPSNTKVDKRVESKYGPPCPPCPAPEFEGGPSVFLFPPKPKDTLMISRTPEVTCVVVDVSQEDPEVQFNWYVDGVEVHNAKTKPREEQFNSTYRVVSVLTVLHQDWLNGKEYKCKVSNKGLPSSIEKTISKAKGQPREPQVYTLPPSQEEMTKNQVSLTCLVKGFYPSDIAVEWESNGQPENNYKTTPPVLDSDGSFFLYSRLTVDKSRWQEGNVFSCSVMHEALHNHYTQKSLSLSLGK
light: QSALTQPPSASGSPGQSVTISCTGTSSDVGFYNFVSWYQQHPDKAPKVMIYEVSKRPSGVPDRFSGSKSGNTASLTVSGLQAEDEADYYCSSYAGSNKVVFGGGTKLTVLGQPKAAPSVTLFPPSSEELQANKATLVCLISDFYPGAVTVAWKADSSPVKAGVETTTPSKQSNNKYAASSYLSLTPEQWKSHRSYSCQVTHEGSTVEKTVAPTECS
notes: human IgG4PE, lambda; NORI-010 with a P124S mutation in the VH domain
B4: NORI-008 (antibody, human IgG4 S228P, kappa, V domains shown)
VH: QVQLQESGPGLVKPSETLSLTCSVSGGSVSSGRYYWTWIRQPPGKGLEWIGYISNSGNTNYNPSLKSRVTISLDTSKKQFSLSLSAVTAADTAVYYCARGFIYDYWFDPWGQGSLVTVSS
VL: DSQMTQSPSSLSASVGDRVTITCQASQDIDNYLNWYQQRPGKAPKLLIYDASKLETGVPSRFSGSGSGTDFTFTISSLQPEDFATYYCQQYGNLPITFGQGTRLDIKR
notes: human IgG4PE, kappa, in the in vitro assays; a mouse IgG1 format was used in one in vivo study only; also called NORI-008 hulgG4PE; NORI-008 IgG

Substitutions are numbered along the chain they refer to. Names and notes keep the numbering of the source.

One assay deals with T1, cyno matriptase-2 ECD protein his tag (cynomolgus, UniProt Q8IU80 84-811 (human entry)).
T1 construct: aa 73-800 of A0A2K5VAP0 with C-terminal linker and His tag; also called cynomolgus MTP-2 ECD
T1 chain: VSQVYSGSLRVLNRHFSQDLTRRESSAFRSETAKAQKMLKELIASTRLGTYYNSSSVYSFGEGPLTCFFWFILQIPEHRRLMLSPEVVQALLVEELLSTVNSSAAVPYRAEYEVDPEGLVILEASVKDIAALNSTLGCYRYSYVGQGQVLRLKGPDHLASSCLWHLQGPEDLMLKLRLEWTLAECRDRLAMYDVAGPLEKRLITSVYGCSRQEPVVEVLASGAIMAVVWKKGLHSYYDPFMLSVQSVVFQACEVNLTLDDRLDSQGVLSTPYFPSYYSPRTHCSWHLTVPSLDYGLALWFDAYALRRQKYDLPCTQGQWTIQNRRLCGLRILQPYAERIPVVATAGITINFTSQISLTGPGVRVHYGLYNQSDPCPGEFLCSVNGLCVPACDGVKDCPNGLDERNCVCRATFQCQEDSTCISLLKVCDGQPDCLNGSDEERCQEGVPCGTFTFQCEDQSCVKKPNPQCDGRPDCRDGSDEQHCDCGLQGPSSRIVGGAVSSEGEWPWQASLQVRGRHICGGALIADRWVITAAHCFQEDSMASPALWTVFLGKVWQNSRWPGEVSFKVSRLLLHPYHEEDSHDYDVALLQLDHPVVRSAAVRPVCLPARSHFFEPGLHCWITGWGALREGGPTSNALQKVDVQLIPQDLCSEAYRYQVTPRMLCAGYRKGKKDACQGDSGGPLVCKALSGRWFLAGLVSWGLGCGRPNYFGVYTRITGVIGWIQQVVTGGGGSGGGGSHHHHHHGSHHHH
The experiment in a line: SPR, his-tagged MTP-2 ECD protein (Table W). The procedure:
(§1) Off-rate screening was performed by surface plasmon resonance (SPR), using a Biacore 8K system (GE Healthcare). Anti-human Fc mix (˜1000 RU) were immobilised in both active and reference channels in HBS-P+ buffer (GE BR100671) pH 7.4. Anti-MTP-2 hulgG4PE antibodies were then captured for 60 sec at 10 μl/min at 1 μg/ml concentration (approximatively 35 and 50 RU were captured) only on the active channel. MTP-2 ECD protein analytes were then injected (at 100, 25, 6.25, 1.56 and 0 nM concentrations) for 120 sec (association time) at 30 μl/min and dissociation monitored for 600 sec. Multiple cycle kinetics mode was used with all 8 channels being used. Reference and background were subtracted from the sensorgrams for each antibody and data was fitted using a 1:1 interaction model in the Biacore evaluation software. Rmax, ka, kd globally fitted, RI=0.
(§2) NORI-011, NORI-008, NORI-003 and NORI-006 were all found to have cross-reactive binding to human, mouse, cyno and rat MTP-2 ECD proteins. […] The true KD value for NORI-008 could not be measured accurately for human or mouse MTP-2 due to a very slow off-rate.
Regarding B1, binding was characterised by a dissociation constant (Kd) of 0.824 nM.

In the case of B2, the Kd came to 1.76 nM.

In the case of B3, the Kd came to 2.17 nM.

The molecule B4 returned a Kd of 0.0104 nM.

The target of another assay is T2, mouse matriptase-2 ECD protein his tag (mouse, UniProt Q9DBI0 80-811).
T2 construct: aa 80-811 of Q9DBI0 with C-terminal linker and His tag; also called mouse MTP-2 ECD; moMTP-2
T2 sequence: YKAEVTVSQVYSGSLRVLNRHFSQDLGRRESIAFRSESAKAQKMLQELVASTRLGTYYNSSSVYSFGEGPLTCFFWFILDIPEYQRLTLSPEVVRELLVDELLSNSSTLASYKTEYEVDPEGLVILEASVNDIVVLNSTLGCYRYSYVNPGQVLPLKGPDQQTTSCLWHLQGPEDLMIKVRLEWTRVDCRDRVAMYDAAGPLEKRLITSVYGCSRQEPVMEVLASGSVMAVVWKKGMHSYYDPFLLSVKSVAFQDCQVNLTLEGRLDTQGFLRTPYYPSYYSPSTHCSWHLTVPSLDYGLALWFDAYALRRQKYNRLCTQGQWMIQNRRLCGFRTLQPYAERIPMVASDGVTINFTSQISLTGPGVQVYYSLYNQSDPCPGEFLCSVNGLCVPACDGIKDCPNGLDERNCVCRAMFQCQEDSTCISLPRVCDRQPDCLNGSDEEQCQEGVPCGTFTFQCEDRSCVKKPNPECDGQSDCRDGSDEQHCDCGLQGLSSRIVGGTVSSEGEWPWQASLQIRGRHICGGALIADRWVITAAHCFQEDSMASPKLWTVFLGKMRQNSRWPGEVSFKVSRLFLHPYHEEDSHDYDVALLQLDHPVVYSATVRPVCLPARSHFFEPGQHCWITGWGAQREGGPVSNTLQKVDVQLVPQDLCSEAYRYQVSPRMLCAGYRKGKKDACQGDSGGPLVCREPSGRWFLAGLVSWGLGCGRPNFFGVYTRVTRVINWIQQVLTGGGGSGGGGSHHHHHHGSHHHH
As to the kind of experiment: SPR, his-tagged MTP-2 ECD protein (Table W). How it is done: as §1, §2
In general terms: Surface plasmon resonance follows binding to a sensor surface in real time, without labels.
On to B1, for which binding was characterised by a dissociation constant (Kd) of 27 nM.

B2 showed a Kd of 28.9 nM.

Turning to B3, the Kd turned out to be 9 nM.

A further assay has as its target T3, rat matriptase-2 ECD protein his tag (rat, UniProt Q9DBI0 80-811 (mouse entry)).
T3 construct: aa 80-811 of NCBI XP_006242057.1 with C-terminal linker and His tag; also called rat MTP-2 ECD
T3 chain: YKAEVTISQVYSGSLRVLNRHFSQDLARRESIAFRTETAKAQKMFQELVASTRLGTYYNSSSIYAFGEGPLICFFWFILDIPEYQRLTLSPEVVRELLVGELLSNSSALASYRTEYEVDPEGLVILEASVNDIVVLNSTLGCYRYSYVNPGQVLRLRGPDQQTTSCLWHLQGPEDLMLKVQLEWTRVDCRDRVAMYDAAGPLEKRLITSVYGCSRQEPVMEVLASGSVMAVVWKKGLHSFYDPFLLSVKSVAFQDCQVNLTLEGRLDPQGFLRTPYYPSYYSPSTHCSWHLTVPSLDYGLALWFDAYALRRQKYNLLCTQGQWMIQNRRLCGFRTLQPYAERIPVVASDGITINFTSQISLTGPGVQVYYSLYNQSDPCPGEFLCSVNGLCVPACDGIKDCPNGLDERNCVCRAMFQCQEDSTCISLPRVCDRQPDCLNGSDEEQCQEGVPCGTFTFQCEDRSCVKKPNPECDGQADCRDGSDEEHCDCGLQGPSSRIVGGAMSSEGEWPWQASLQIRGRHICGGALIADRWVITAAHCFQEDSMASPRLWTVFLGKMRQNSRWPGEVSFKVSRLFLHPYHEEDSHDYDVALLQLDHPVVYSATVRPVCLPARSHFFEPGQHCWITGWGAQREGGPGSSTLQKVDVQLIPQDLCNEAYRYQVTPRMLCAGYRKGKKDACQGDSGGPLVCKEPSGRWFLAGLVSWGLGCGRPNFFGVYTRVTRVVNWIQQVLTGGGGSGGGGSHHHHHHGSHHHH
The experiment in a line: SPR, his-tagged MTP-2 ECD protein (Table W). How it is done:
as §1, §2
The molecule B1 showed a Kd of 15.2 nM.

B2 displayed a Kd of 19.2 nM.

Take B3: the dissociation constant (Kd) was found to be 3.01 nM.

Molecule B4 had a Kd of 7.64 nM.
